Laboratory results: paper PMC12416549 (2024)

Target: T1, TNFR1 (Homo sapiens, UniProt P19438)
T1 chain: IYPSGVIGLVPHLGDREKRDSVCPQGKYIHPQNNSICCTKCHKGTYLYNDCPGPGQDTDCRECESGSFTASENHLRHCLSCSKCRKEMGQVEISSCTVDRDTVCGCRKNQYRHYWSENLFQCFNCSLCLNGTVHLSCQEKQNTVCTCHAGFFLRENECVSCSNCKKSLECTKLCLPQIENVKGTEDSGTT
Assay: yeast display SC50

Binder	apparent Kd (screen)
R38C (designed binder) SMEEEVEKAAKEYEKKKKEAIEKHLEKLKAKDKEAAECFLKELEEAAKEYAKDEAKTMSEEEAKRRAKKYKEKVLLSELSEEEQKEIKEAEEKLVRTILKYVEEAAK	2.25 nM
E4Q (designed binder) SMEQEVEKAAKEYEKKKKEAIEKHLEKLKAKDKEAAERFLKELEEAAKEYAKDEAKTMSEEEAKRRAKKYKEKVLLSELSEEEQKEIKEAEEKLVRTILKYVEEAAK	0.446 nM
K52I (designed binder) SMEEEVEKAAKEYEKKKKEAIEKHLEKLKAKDKEAAERFLKELEEAAKEYAIDEAKTMSEEEAKRRAKKYKEKVLLSELSEEEQKEIKEAEEKLVRTILKYVEEAAK	0.446 nM
E42S (designed binder) SMEEEVEKAAKEYEKKKKEAIEKHLEKLKAKDKEAAERFLKSLEEAAKEYAKDEAKTMSEEEAKRRAKKYKEKVLLSELSEEEQKEIKEAEEKLVRTILKYVEEAAK	7.78 nM
E37L (designed binder) SMEEEVEKAAKEYEKKKKEAIEKHLEKLKAKDKEAALRFLKELEEAAKEYAKDEAKTMSEEEAKRRAKKYKEKVLLSELSEEEQKEIKEAEEKLVRTILKYVEEAAK	0.869 nM
K15N (designed binder) SMEEEVEKAAKEYENKKKEAIEKHLEKLKAKDKEAAERFLKELEEAAKEYAKDEAKTMSEEEAKRRAKKYKEKVLLSELSEEEQKEIKEAEEKLVRTILKYVEEAAK	0.539 nM
E14L (designed binder) SMEEEVEKAAKEYLKKKKEAIEKHLEKLKAKDKEAAERFLKELEEAAKEYAKDEAKTMSEEEAKRRAKKYKEKVLLSELSEEEQKEIKEAEEKLVRTILKYVEEAAK	7.07 nM
E12S (designed binder) SMEEEVEKAAKSYEKKKKEAIEKHLEKLKAKDKEAAERFLKELEEAAKEYAKDEAKTMSEEEAKRRAKKYKEKVLLSELSEEEQKEIKEAEEKLVRTILKYVEEAAK	0.446 nM
E3V (designed binder) SMVEEVEKAAKEYEKKKKEAIEKHLEKLKAKDKEAAERFLKELEEAAKEYAKDEAKTMSEEEAKRRAKKYKEKVLLSELSEEEQKEIKEAEEKLVRTILKYVEEAAK	1.69 nM
K48H (designed binder) SMEEEVEKAAKEYEKKKKEAIEKHLEKLKAKDKEAAERFLKELEEAAHEYAKDEAKTMSEEEAKRRAKKYKEKVLLSELSEEEQKEIKEAEEKLVRTILKYVEEAAK	0.718 nM
A30V (designed binder) SMEEEVEKAAKEYEKKKKEAIEKHLEKLKVKDKEAAERFLKELEEAAKEYAKDEAKTMSEEEAKRRAKKYKEKVLLSELSEEEQKEIKEAEEKLVRTILKYVEEAAK	0.869 nM
K41T (designed binder) SMEEEVEKAAKEYEKKKKEAIEKHLEKLKAKDKEAAERFLTELEEAAKEYAKDEAKTMSEEEAKRRAKKYKEKVLLSELSEEEQKEIKEAEEKLVRTILKYVEEAAK	0.956 nM
I21G (designed binder) SMEEEVEKAAKEYEKKKKEAGEKHLEKLKAKDKEAAERFLKELEEAAKEYAKDEAKTMSEEEAKRRAKKYKEKVLLSELSEEEQKEIKEAEEKLVRTILKYVEEAAK	0.49 nM

Results, then the binder that gave them:

apparent Kd (screen)	Binder
11.4 nM	E92R (designed binder) SMEEEVEKAAKEYEKKKKEAIEKHLEKLKAKDKEAAERFLKELEEAAKEYAKDEAKTMSEEEAKRRAKKYKEKVLLSELSEEEQKEIKEAERKLVRTILKYVEEAAK
4.83 nM	Q84C (designed binder) SMEEEVEKAAKEYEKKKKEAIEKHLEKLKAKDKEAAERFLKELEEAAKEYAKDEAKTMSEEEAKRRAKKYKEKVLLSELSEEECKEIKEAEEKLVRTILKYVEEAAK
1.16 nM	K107Q (designed binder) SMEEEVEKAAKEYEKKKKEAIEKHLEKLKAKDKEAAERFLKELEEAAKEYAKDEAKTMSEEEAKRRAKKYKEKVLLSELSEEEQKEIKEAEEKLVRTILKYVEEAAQ
3.99 nM	L75P (designed binder) SMEEEVEKAAKEYEKKKKEAIEKHLEKLKAKDKEAAERFLKELEEAAKEYAKDEAKTMSEEEAKRRAKKYKEKVPLSELSEEEQKEIKEAEEKLVRTILKYVEEAAK
1.86 nM	L76Q (designed binder) SMEEEVEKAAKEYEKKKKEAIEKHLEKLKAKDKEAAERFLKELEEAAKEYAKDEAKTMSEEEAKRRAKKYKEKVLQSELSEEEQKEIKEAEEKLVRTILKYVEEAAK
0.539 nM	S80L (designed binder) SMEEEVEKAAKEYEKKKKEAIEKHLEKLKAKDKEAAERFLKELEEAAKEYAKDEAKTMSEEEAKRRAKKYKEKVLLSELLEEEQKEIKEAEEKLVRTILKYVEEAAK
0.956 nM	R65M (designed binder) SMEEEVEKAAKEYEKKKKEAIEKHLEKLKAKDKEAAERFLKELEEAAKEYAKDEAKTMSEEEAKMRAKKYKEKVLLSELSEEEQKEIKEAEEKLVRTILKYVEEAAK
1.4 nM	E86L (designed binder) SMEEEVEKAAKEYEKKKKEAIEKHLEKLKAKDKEAAERFLKELEEAAKEYAKDEAKTMSEEEAKRRAKKYKEKVLLSELSEEEQKLIKEAEEKLVRTILKYVEEAAK
2.48 nM	K100D (designed binder) SMEEEVEKAAKEYEKKKKEAIEKHLEKLKAKDKEAAERFLKELEEAAKEYAKDEAKTMSEEEAKRRAKKYKEKVLLSELSEEEQKEIKEAEEKLVRTILDYVEEAAK
0.539 nM	E81M (designed binder) SMEEEVEKAAKEYEKKKKEAIEKHLEKLKAKDKEAAERFLKELEEAAKEYAKDEAKTMSEEEAKRRAKKYKEKVLLSELSMEEQKEIKEAEEKLVRTILKYVEEAAK
0.49 nM	T97R (designed binder) SMEEEVEKAAKEYEKKKKEAIEKHLEKLKAKDKEAAERFLKELEEAAKEYAKDEAKTMSEEEAKRRAKKYKEKVLLSELSEEEQKEIKEAEEKLVRRILKYVEEAAK
1.16 nM	S80M (designed binder) SMEEEVEKAAKEYEKKKKEAIEKHLEKLKAKDKEAAERFLKELEEAAKEYAKDEAKTMSEEEAKRRAKKYKEKVLLSELMEEEQKEIKEAEEKLVRTILKYVEEAAK
0.539 nM	T97M (designed binder) SMEEEVEKAAKEYEKKKKEAIEKHLEKLKAKDKEAAERFLKELEEAAKEYAKDEAKTMSEEEAKRRAKKYKEKVLLSELSEEEQKEIKEAEEKLVRMILKYVEEAAK
